PMC2464603, “Roles of Arabidopsis WRKY3 and WRKY4 Transcription Factors in Plant Responses to Pathogens”
Substitutions are numbered along the chain they refer to.

How the values were obtained:
[1] = biological target: WRKY3 (Arabidopsis, UniProt Q9ZQ70 1-513); assay: EMSA; not stated; DNA-binding assays as previously described (ref 15); details: protein: recombinant
[2] = biological target: WRKY4 (Arabidopsis, UniProt Q9XI90 1-514); assay: as above; details: protein: recombinant
Sequence of WRKY4 (Q9XI90 whole entry): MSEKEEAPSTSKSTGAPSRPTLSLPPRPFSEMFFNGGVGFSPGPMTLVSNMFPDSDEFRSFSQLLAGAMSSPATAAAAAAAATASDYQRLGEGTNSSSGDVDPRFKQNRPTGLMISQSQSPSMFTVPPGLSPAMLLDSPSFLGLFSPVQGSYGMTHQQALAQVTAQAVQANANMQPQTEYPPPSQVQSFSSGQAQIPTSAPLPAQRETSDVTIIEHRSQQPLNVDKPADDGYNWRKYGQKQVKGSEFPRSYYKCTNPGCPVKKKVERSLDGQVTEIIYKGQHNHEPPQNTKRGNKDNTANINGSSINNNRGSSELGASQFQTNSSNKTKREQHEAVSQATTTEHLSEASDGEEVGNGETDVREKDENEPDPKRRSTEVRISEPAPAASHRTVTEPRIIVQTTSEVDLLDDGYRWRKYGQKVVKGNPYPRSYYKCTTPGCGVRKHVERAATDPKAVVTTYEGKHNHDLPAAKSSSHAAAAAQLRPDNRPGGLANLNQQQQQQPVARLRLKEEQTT

Sequence of WRKY3 (Q9ZQ70 whole entry): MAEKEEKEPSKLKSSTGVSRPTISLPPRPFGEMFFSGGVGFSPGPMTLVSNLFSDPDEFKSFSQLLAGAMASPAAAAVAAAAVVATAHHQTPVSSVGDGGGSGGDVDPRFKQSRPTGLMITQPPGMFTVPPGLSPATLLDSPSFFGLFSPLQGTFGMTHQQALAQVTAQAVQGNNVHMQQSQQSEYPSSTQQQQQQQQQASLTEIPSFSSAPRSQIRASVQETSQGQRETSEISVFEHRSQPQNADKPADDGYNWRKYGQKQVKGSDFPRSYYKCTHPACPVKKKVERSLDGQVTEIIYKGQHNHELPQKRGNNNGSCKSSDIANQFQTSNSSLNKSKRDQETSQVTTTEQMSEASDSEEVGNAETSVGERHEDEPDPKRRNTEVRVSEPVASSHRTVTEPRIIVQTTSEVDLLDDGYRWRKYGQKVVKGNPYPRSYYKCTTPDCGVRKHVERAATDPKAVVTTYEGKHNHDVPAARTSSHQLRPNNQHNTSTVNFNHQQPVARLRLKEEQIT

B1: Pchn0 (dsDNA)
DNA 1: GGAACTTGACCTTGACCTTAGGGCTGCAGGAATTCG
DNA 2: CGAATTCCTGCAGCCCTAAGGTCAAGGTCAAGTTCC
binding result [1]: binds | binding result [2]: binds

B2: mPchn0 (dsDNA)
DNA 1: B1 DNA 1 with C10A, C16A
DNA 2: B1 DNA 2 with G21T, G27T
binding result [1]: no binding
